Measured values reported in the supplement of paper PMC9170038.

Test system: MS2 coat protein
Test: apparent KD of MS2 coat protein; designed switch direction (-1 OFF switch, 1 ON switch): 1; higher = weaker reporter binding
In short: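 Designed RNA switches with common flanks were made on Illumina chips by stalled E. coli RNA polymerase. Titration with SNAP-549-labelled MS2 coat protein doubled from 0.7 or 1.5 nM up to 3 µM. Apparent KD is each design's median over clusters after curve-fitting normalised fluorescence.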

[1] = Eterna round: R95, input ligand: FMN 200 uM
[2] = Eterna round: R95, input ligand: microRNA oligo, concentration not stated
[3] = Eterna round: R95, input ligand: none
[4] = input ligand: microRNA oligo, concentration not stated

Row | Sequence | apparent KD of MS2 coat protein [1] [nM] | apparent KD of MS2 coat protein [2] [nM] | apparent KD of MS2 coat protein [3] [nM] | apparent KD of MS2 coat protein (input ligand: FMN 200 uM) [nM] | apparent KD of MS2 coat protein [4] [nM] | apparent KD of MS2 coat protein (input ligand: none) [nM]
1 | AGUCCAGCCUGAGCUGGACAGAAGCAUGUACAUGAGGAUCACCCAUGUUCAUGUACAAGCUUUUUGCUCGUCUUAAA [Zipper 52 - 3] (puzzle: Sensor for hsa-mir-208a) | 480 | 14.2 | 436 | – | – | –
2 | AGUCCAGCCAGAGCUGGACAAAAGCAUGUACAUGAGGAUCACCCAUGUUCAUGUACAAGCUUUUUGCUCGUCUUAAG [Mat - hsa-mir-208a - Mod of JL - 64] (puzzle: Sensor for hsa-mir-208a) | 583 | 15.9 | 547 | – | – | –
3 | GCUGCAUGGGCAGGAUAUGGGUUCAGAGCGGAAGUGCGCUUUGAUACAUGAGGAUCACCCAUGUCCCAGAAGGGCCCAAGCGGC [Laleinza] (Eterna round: R96, puzzle: Same State NG 2) | – | – | – | 18.4 | 53.7 | 97.3
4 | AAUUAUUAACAUGAGGAUCACCCAUGUAUUUAUGUUAGUAUCUAACAUAGUCUUAUUAAGCUUUGUGAUUGUCUUAU [Cole's First Solution] (puzzle: Sensor for hsa-mir-208a version 2) | 29.8 | 32.6 | 38.8 | – | – | –
5 | GGAGCCGGCAGGCAGGAUAUUCAUAUUAAAACAUGAGGAUCACCCAUGUAGGCCAGAAGGCCUUGGGAGAAGGGCCAUCGGCUCG [Xeonanis - 13] (puzzle: Same State 2) | 27.8 | 225 | 569 | – | – | –
6 | CAGCACUGUCGAGAGGAUAUGCGGUGAUGGACAUGAGGAUCACCCAUGUUAGCGACAGCAUCACGGCAGAAGGCUCUACUGUUGC [Soteed Omei mod 34] (puzzle: Same State 2) | 12.6 | 12.2 | 14.3 | – | – | –
7 | UUAAGCAACGGGCAGGAUAUGUAUUAAAAUACAUGAGGAUCACCCAUGUGCAGGUGUAACACCUGACAGAAGGGCCAAUCGGUGC [Soteed - 8] (puzzle: Same State 2) | 39.5 | 256 | 409 | – | – | –
8 | GGAUGAUGGACAGGAUAUUGAUUUUAAUGGUUUCAAGAAGGGUCUUUGAUUUAAACGACCAGUUACAUGAGGAUCACCCAUGUU [JR_SSNG1_Sub032] (Eterna round: R96, puzzle: Same State NG 1) | – | – | – | 40.1 | 36.1 | 52
9 | AUAAAACAUGAGGAUCACCCAUGUCAACAAAGUCGAGGAUAUGGGCAAAUAAAAUAUGAACCAGAAGGCGAAUAAU [salish99_ss1_r3_019] (puzzle: Same State 1) | 35.8 | 221 | 310 | – | – | –
10 | AUUAUUUAUGCAGGAUAUGAUUAACAUGAGGAUCACCCAUGUGGUGUUGUGAGUAAGGAGAGUGAUCAGAAGGGCAAUUUUUUU [JMF's solution 42] (Eterna round: R96, puzzle: Same State NG 2) | – | – | – | 709 | 387 | 375
11 | UAGCUCGUGUGAGGAUAUGCCGCCGUUUCGGCUGCAGAAGGUGCUACGUUACAUGAGGAUCACCCAUGUCUCUGUUGUUUCGUU [salish99_SSNG1_r04_956] (Eterna round: R96, puzzle: Same State NG 1) | – | – | – | 21.5 | 17.5 | 23.1
12 | GAUAAACAUGAGGAUCACCCAUGUAAUAAUAUGGGAGGAUAUCAGAAUGUAUGUAUGUAAUGAGAAGGCCUAAUAU [Mat - Same State 1 - Mod of Eli - D71] (puzzle: Same State 1) | 61.8 | 545 | 491 | – | – | –
13 | UUACAGCACGGGUAGGAUAUGUAGGGUGGUACAUGAGGAUCACCCAUGUAUCCACCCUUCUAACGGCAGAAGGGCCUGUCGCUGC [Riarve] (Eterna round: R96, puzzle: Same State 2) | – | – | – | 28.3 | 11.2 | 27.5
14 | UUUAGUUGCGGGCAGGAUAUGUAUUAAAAUACAUGAGGAUCACCCAUGUGUGGGUAUAACACCCAACAGAAGGGCCAAUCGCGAC [Laonerce - 12] (Eterna round: R96, puzzle: Same State 2) | – | – | – | – | 94.4 | –
15 | GAGGGACAGACCAACAUGAGGAUCACCCAUGUCCUCGCAGGUCAGGAUAUCCGGAGGUAGACGAAGGAGAAGGGACGGUGAACC [AK SSNG3-V2-38] (Eterna round: R96, puzzle: Same State NG 3) | – | – | – | 893 | 251 | 631
16 | AUUGCUAUCACAGGAUAUCAUGCGAAAAUUGCGUGAGAAGGGUGGACUCUGUCAUUGCCGGAGGACAUGAGGAUCACCCAUGUC [SameState NG1 #100] (Eterna round: R96, puzzle: Same State NG 1) | – | – | – | 96.2 | 27 | 60.9
17 | UUUAGUUGCGGGCAGGAUAUGUAUUAAAAUACAUGAGGAUCACCCAUGUGAGGCCGAAAAGGCCUACAGAAGGGCCAAACGCGAC [Laonerce - 23] (puzzle: Same State 2) | 14.4 | 84.5 | 117 | – | – | –
18 | GCUACCAAAGAAGCCAACAUGAGGAUCACCCAUGUAUGUUGGCAGGAUAUCGUUUGCAAAGCGAACGAGAAGGGCUAAGGUAGC [Mat - Same State NG 3 - JL Mod - D89] (Eterna round: R96, puzzle: Same State NG 3) | – | – | – | 197 | 116 | 231
19 | GAGGGAUGAGCGUAGGAUAUAGGAGAAGUGACAUGAGGAUCACCCAUGUGGUAUGAGGGAUGAUUCUAGAAGGACGCGGUAGGAG [JR_SS2_Sub062] (puzzle: Same State 2) | 154 | 494 | 116 | – | – | –
20 | UCGGGCGUACUUGCUGACAUGAGGAUCACCCAUGUGCUUGGGAAGGAUAUGGUUCCGUUUCGGUUCCAGAAGGUCCUGGCUGCU [salish99_SSNG3_r04_316] (Eterna round: R96, puzzle: Same State NG 3) | – | – | – | 116 | 47 | 79.8
21 | CAUAAACCUCACGAGGAUAUCCACAGAUAGACAUGAGGAUCACCCAUGUCGACUUUCGAACUGAGGGAGAAGGCGUAGGUACUAA [Gebiorge] (puzzle: Same State 2) | 12.1 | 13.1 | 13.4 | – | – | –
22 | GCACAUGAGGAUCACCCAUGUGCGCUUGGUUGUCCAAGCGCACAGGAUAUACCUCCAAAUGGGAGGUAGAAGGGUGAAAAGAAG [Leones] (Eterna round: R96, puzzle: Same State NG 3) | – | – | – | 15.1 | 11.1 | 11
23 | AACAGUCGGCGAGGAUAUGGACGUACAGGUUUGCCUGUGCGGCUCACAUGAGGAUCACCCAUGUUCUAGAAGGCGCCACUGUGA [Racearza] (Eterna round: R96, puzzle: Same State NG 2) | – | – | – | 15.6 | 60 | 73.9
